T1: Tom40 (S. cerevisiae (endogenous in the …, UniProt P23644 1-387))
T1 sequence: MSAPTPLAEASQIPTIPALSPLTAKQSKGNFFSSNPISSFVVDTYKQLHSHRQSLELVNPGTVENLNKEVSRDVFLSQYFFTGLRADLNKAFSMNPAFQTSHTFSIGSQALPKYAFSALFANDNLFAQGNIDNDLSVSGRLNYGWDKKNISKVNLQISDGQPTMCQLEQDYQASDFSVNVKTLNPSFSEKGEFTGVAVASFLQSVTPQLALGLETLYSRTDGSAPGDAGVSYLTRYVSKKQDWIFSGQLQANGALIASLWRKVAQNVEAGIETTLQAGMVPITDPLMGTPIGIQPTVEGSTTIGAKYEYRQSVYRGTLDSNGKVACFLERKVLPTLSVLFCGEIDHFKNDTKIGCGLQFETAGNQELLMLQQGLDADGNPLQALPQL

B1: Tom7 (natural protein)
chain: MSFLPSFILSDESKERISKILTLTHNVAHYGWIPFVLYLGWAHTSNRPNFLNLLSPLPSV
B2: Tom22 with a C-terminal His10 tag (natural protein)
chain: MVELTEIKDDVVQLDEPQFSRNQAIVEEKASATNNDVVDDEDDSDSDFEDEFDENETLLDRIVALKDIVPPGKRQTISNFFGFTSSFVRNAFTKSGNLAWTLTTTALLLGVPLSLSILAEQQLIEMEKTFDLQSDANNILAQGEKDAAATAN
B3: Tom6 (natural protein)
chain: MDGMFAMPGAAAGAASPQQPKSRFQAFKESPLYTIALNGAFFVAGVAFIQSPLMDMLAPQL
B4: Tom5 (natural protein)
chain: MFGLPQQEVSEEEKRAHQEQTEKTLKQAAYVAAFLWVSPMIWHLVKKQWK

The target in the assay is T1, Tom40. Briefly: cryo-EM structure.
On to B1, for which the binding result is “binds”.

Take B2: the binding result was “binds”. The value for B3 was “binds”. The value for B4 was “binds”.
